Laboratory results published in publication PMC11667166, “O-glycosylation is essential for cell surface expression of the transcobalamin receptor CD320” (The Journal of Biological Chemistry, 2024).

Biological target: the molecule itself
Experiment: co-IP; CD320-FLAG and CD320-V5 co-expressed in HEK293 cells; immunoprecipitation with anti-FLAG or anti-V5 antibody, western blotting with anti-FLAG or anti-V5 under non-reducing conditions (~350-kDa band)

B1: human CD320 (transcobalamin receptor), wild type, with an N-terminal FLAG or V5 tag (receptor, UniProt Q9NPF0-1 36-282, looked up)
chain: SPLSTPTSAQAAGPSSGSCPPTKFQCRTSGLCVPLTWRCDRDLDCSDGSDEEECRIEPCTQKGQCPPPPGLPCPCTGVSDCSGGTDKKLRNCSRLACLAGELRCTLSDDCIPLTWRCDGHPDCPDSSDELGCGTNEILPEGDATTMGPPVTLESVTSLRNATTMGPPVTLESVPSVGNATSSSAGDQSGSPTAYGVIAAAAVLSASLVTATLLLLSWLRAQERLRPLGLLVAMKESLLLSEQKTSLP
modifications: N-glycans at N126, N195 and N213; terminally sialylated O-glycans (the ~70-kDa proteoform)
notes: CD320 (transcobalamin receptor), human, NCBI NP_057663.1; wild type; type I transmembrane protein with signal peptide, two LDLR repeats, EGF-like module, transmembrane domain and cytoplasmic segment; Two differently tagged copies of the same protein (one with N-terminal FLAG, one with N-terminal V5) were co-expressed; each chain carries only one of the two tags; The ~350-kDa complex is seen only …
For B1, which “stoichiometry N” value is on record?
Its value is ~5.
